Results published in doi:10.1101/2024.04.24.591037.

How the values were obtained:
[1] = biological target: ΔN-terminal GCN2 HRSL, mutant Δ(V996-N1009) of Kluyveromyces marxianus GCN2 HRSL (Kluyveromyces marxianus); experiment: SEC
[2] = biological target: Kluyveromyces marxianus GCN2 HRSL domain (residues 996-1511) (Kluyveromyces marxianus); experiment: SEC

stoichiometry N [1]	stoichiometry N [2]	Substance
2		ΔN-terminal GCN2 HRSL, mutant Δ(V996-N1009) of Kluyveromyces marxianus GCN2 HRSL (domain or fragment)
	2	Kluyveromyces marxianus GCN2 HRSL domain (residues 996-1511) (domain or fragment)
